According to the nanobody polyreactivity screen of Harvey et al. (2022):

Assay: yeast display, Sf9 membrane polyspecificity reagent, FACS + sequencing; frameworks hold sequencing errors
Summary of the method: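 Nanobodies came from a synthetic yeast display library in Saccharomyces cerevisiae BJ5465, induced with galactose for 36–48 hours and stained for 1 hour at 4 °C with 10% biotinylated, detergent-solubilized Sf9 membrane reagent. Cells were enriched on streptavidin microbeads and then FACS-sorted, with low and high (top ~1%) gates set on anti-HA fluorescence for expression and streptavidin fluorescence for reagent binding. Each polyreactivity label reflects the gate a clone came from. Genes were amplified by colony PCR, sequenced by MiSeq 2 × 250 and filtered by CDR length.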

Sequence | polyreactivity (PSR sort gate)
QVQLVESGGGLVQAGGSLRLSCAASGRTFRIYAMGWYRHAPRKERELVAAIRWSGGTTYYADSVKGRFSISRDNAKNTVYLQMTSLKPEDTAVYYCAADSTNRYDYCGQGTQVTVSS | high polyreactivity
QVQLVESGGGLVQAGGSLRLSCAASGRTFRIYAMGWYRQAPGKEREFVAAITWSGGRTYYADSVKGRFTISRDNAKNTVYLQMNSLKPEDTAVYYCAADPTYLRTLRFGSYDYWGQGNQVTVSS | high polyreactivity
QVQLVESGGGLVQAGGSLRLSCAASGRTFRIYAMGWYRQAPGKERELVAAINSGGTTNYADSVKGRFTISRDNAKNTVYLQMISLKPEDTAVYYCAVRYWKTLSHFSYDYWGQGTQVTVSS | low polyreactivity
QVQLVESGGGLVQAGGSLRLSCAASGRTFRIYAMGWYRQAPGKERELVAAISARGGSTYYADSVKGRFTISRDNAKNTVYLQMNSLKPEDTAVYYCAAEKTRRVDYWGQGTQVTVSS | high polyreactivity
QVQLVESGGGLVQAGGSLRLSCAASGRTFRIYAVGWYIQAPGKERELVARITWSGGRTYYADSVKGRFTISRDNAKNTVYLQMNSLKPEDTAVYYCNAGGSWEFDYWGQGTQVTVSS | low polyreactivity
QVQLVESGGGLVQAGGSLRLSCAASGRTFRKYAMGWYRQAPGKERELVAAISQRGGTTYYADSVKGRFTISRDNAKNTVYLQINSLKPEDTAVYYCNVAWVGVSLVYGPFEYDYWGQGTQVTVSS | high polyreactivity
QVQLVESGGGLVQAGGSLRLSCAASGRTFRKYAMGWYRQAPGKERELVAAISWSGGSTYYANSVKGRFTISRDYAKNTVYLQMNILKPEDTAVYYCAAVPVHTGSLYWGFTTGYDYWGQGTQVTVSS | low polyreactivity
QVQLVESGGGLVQAGGSLRLSCAASGRTFRKYAMGWYRQAPGKERELVAAISWSGGSTYYANSVKGRFTISRVNAKNTVYLQMNSLKPEDTAVYYCAAVPVDTGSLYWGFTTGYDYWGQGTQVTVSS | low polyreactivity
QVQLVESGGGLVQAGGSLRLSCAASGRTFRKYTMGWYRQAPGKEREFVAAITYSGGSTYYADSVKGRFTISRDNAKNTGYLQMNSLKPEDTAVSYCFTRGGYYLYYSYYYWGQGTQVTVSS | high polyreactivity
QVQLVESGGGLVQAGGSLRLSCAASGRTFRLYALGWYRQAPGKERELVAAIRSSGGRTYYADSVKGRFTISRDNAKKTVYLQINSLKPEDTAVYYCATTSGLIGYYWKYNYWGQGTQVTVSS | high polyreactivity
QVQLVESGGGLVQAGGSLRLSCAASGRTFRLYAMGWSRPAPGKERELVAAISSGGSTYYADSVKGRFTISRDNAKNTVYLQMNSLKPEDTAVYYCFAWVYQFGYWGQGTQVTVSS | low polyreactivity
QVQLVESGGGLVQAGGSLRLSCAASGRTFRLYAMGWYRQAPGKERELVADITTGGGSTYYADSVKGRFTISRDNAKNTVYLQMNSLKPEDTAVYYCAAEQDTVWFLWIVDYWGQGTQVTVSS | low polyreactivity
QVQLVESGGGLVQAGGSLRLSCAASGRTFRNNAMGWYRQAPGKERELDAAIKGSGGSTYYADSVKGRFTISRDNAKNTVYLQMNSLKPEDTAVYYCAKAVVPWGPNFRPNHTRGYYWGQGTQATVSS | low polyreactivity
QVQLVESGGGLVQAGGSLRLSCAASGRTFRNYAMGWYRQAPGKEREFVAAITGRGGSTYYADSVKGRFTISRDNAKNTVYLQMNSLKPEDTAVYYCAAVSGRTGQRTYYPYYYWGQGTQVTVSS | high polyreactivity
QVQLVESGGGLVQAGGSLRLSCAASGRTFRPNAMGWYRQAPGNERELVASITRRGGTTYYADSVKGGFTISRDNAKNTVYLHMNSLKPEDTAVYYCNAPPGYSSTRNGYWGQGTQVTVSS | high polyreactivity
QVQLVESGGGLVQAGGSLRLSCAASGRTFRPYAMGWYRQAPGKEMELVAAIDSSGTSTYYADSVKGRFTISRDTAKNTVYLQMNSLKPEDTAVYYCAKAWPDHWYSRYDYWGQGTQLTVSS | low polyreactivity
QVQLVESGGGLVQAGGSLRLSCAASGRTFRPYAMGWYRQAPGKERDLVAAIDSSGTSTYYADSVKGRFTISRDNAKKTVYLKMNSLKPEDTAVYYCAKAWPDHWYSRYDYWGQGTQVTVSS | low polyreactivity
QVQLVESGGGLVQAGGSLRLSCAASGRTFRPYAMGWYRQAPGKERELVAAISSRGSSTYYADSVKGRFTISRDNAKNTVYLQMNSLKPEDTAFYYCAAEGSVGLYGLIMHYWGQGTQVTVSS | high polyreactivity
QVQLVESGGGLVQAGGSLRLSCAASGRTFRPYAMGWYRQAPGKERELVAAISYRGGITNYADSVKGRFTISRDNAKNTVYLQMNSLKPEDTAVYYCNRYAIWVSRFSDLDYWGQGTQVTVSS | low polyreactivity
QVQLVESGGGLVQAGGSLRLSCAASGRTFRQYAMGWYRQAPGKERELVAAIRTNGGRTYYADSVKGRFTISRDNAKNTVYLQMNSLKPEDTAVYYCAVYDVVQGVLFDYWGQGTQVTVSS | high polyreactivity
QVQLVESGGGLVQAGGSLRLSCAASGRTFRRNVMGWYRQAPGKERELVAAISTRGGDTYYADSVKGRFTISRDNAKNTVYLQMNSLKPEDTAVYYCAAEYTYGYDYWGQGTQVTVSS | high polyreactivity
QVQLVESGGGLVQAGGSLRLSCAASGRTFRRYAMGLYRQAPGKERELVASISTSGGSTYADSVKGRFTISRDNAKNTVYLQMNSLKPEDTAVYYCAVRSPRYVRNGDYWGQGTQVTVSS | high polyreactivity

Sequence | polyreactivity (PSR sort gate)
QVQLVESGGGLVQAGGSLRLSCAASGRTFRRYAMGWYRQAPGKEREFVAAIRYSGGITYYADSVKGRFTISRDNAKNTVYLQMNSLKPEDTAVYYCAAYGWGNRWYSRFDYWGQGTQVTVSS | high polyreactivity
QVQLVESGGGLVQAGGSLRLSCAASGRTFRRYAMGWYRQAPGKERELVAAISRTGSTNNYADSVKGRFTISRDNAKNTVYLQMNSLIPEDTAVYYCKRQHNLGYGYDYWGQGTQVTVSS | high polyreactivity
QVQLVESGGGLVQAGGSLRLSCAASGRTFRRYAMGWYRQAPGKERELVAAITNRGASTYYADSVKGRFTISRDNAKNTVYLQMNSLKPEDTAVYFCNTDPVSGLVWKGTEYDYWGQGTQVTVSS | low polyreactivity
QVQLVESGGGLVQAGGSLRLSCAASGRTFRRYAMGWYRQAPGKERELVAAITSGGDTYYADSVKGRFTISRDNAKNTVYLQMNSLKPEDTAVYYCNAASVTRRTGIRAVDFDYWGQGTQVTVSS | high polyreactivity
QVQLVESGGGLVQAGGSLRLSCAASGRTFRRYAMGWYRQAPGKERELVASISTSGGSTYADSVKGRFTISRDNAKNTVYLQMNSLKPEDTAVYYCAVRSPRYVRNGDYWGQGTQVTVSS | high polyreactivity
QVQLVESGGGLVQAGGSLRLSCAASGRTFRSDNAMGWYRQAPGKERELVAAISQGGGTYYADSVKGRFTISRDNAKNTVYLQMNSLKPEDTAVSYCARDAYYADPSLWYYTYDYWGQCTQVTVSS | low polyreactivity
QVQLVESGGGLVQAGGSLRLSCAASGRTFRSYAMGRYRQAPGKVRELVAAISYGGGSTYYADSVKGRFTISRDNAKNTVYLQMNSLKPEDTAVYYCAAAGNKRGGYDYWGQGTQVTVSS | high polyreactivity
QVQLVESGGGLVQAGGSLRLSCAASGRTFRTNDMGWYRQAPGKERELVAAISRGGGSTYYADSVKGRFTISRDNAKNTVYLQMNSLKPEDTAVYYCNALRNGIAFGAMDYWGQGTQVTVSS | high polyreactivity
QVQLVESGGGLVQAGGSLRLSCAASGRTFRTYAMGWYRQAPGKERELVAAISRTGRTNYADSVKGRFTISRDNAKNTVYLQMNSLKPEDTAVYYCAADRVGWSGYRGDYWGQGTQVTVSS | high polyreactivity
QVQLVESGGGLVQAGGSLRLSCAASGRTFRTYTMGWYRQAPGKEREFVAAINKSGGTTNYADSVKGRFTISRDNAKNTVYLQMNSLKPEDTAVYYCAKRGRSTYGYDYWGQGTQVTVSS | high polyreactivity
QVQLVESGGGLVQAGGSLRLSCAASGRTFRTYTMGWYRQAPGKERELVAAISRGGSTNYADSVKGRFTISRDNAKNTVYLQMNSLKPEYTAVYYCNAKASFWSPYDDWGQGTQVTVSS | high polyreactivity
QVQLVESGGGLVQAGGSLRLSCAASGRTFRTYTMGWYRQAPGKERELVATISWSGGSTNYADSVKGRFTISRDNAKNTVYLQMNSLKPEDTAVYYCNAYVSPRYRGSRYYYWGQGTQVTVSS | high polyreactivity
QVQLVESGGGLVQAGGSLRLSCAASGRTFRVYAMGWYRQAPGKERELVAAITGSGDSTYYADSVKGRFTISRDNAKYTVYLQMNSLKPEDTAVYYCNAVYRSTFDYWGQGTQVTVSS | high polyreactivity
QVQLVESGGGLVQAGGSLRLSCAASGRTFRVYAMGWYRQAPGKERELVAAITRGGSTYYADSVKGRFTISRDNAKNTVYLQMNSLKPEDTAVYYCAADVLRTQPIGWYSHSPLEYWGQGTQVTVSS | high polyreactivity
QVQLVESGGGLVQAGGSLRLSCAASGRTFRWYAMGWYRQAPGKERELVASITWSGGSTYYADSVKGRFTISRDNAKNTVYLQMNSLKPEDTAVYYCNRVLVVSMYEGNYWGQGTQVTVSS | high polyreactivity
QVQLVESGGGLVQAGGSLRLSCAASGRTFRYNAMGWYRQAPGKERELVAAITYSGGTTYADSVKGRFTISRDNAKNTVYLQMNSLKPEDTAGYYCAARGYVWNIGRYYWGQGTQVTVSS | high polyreactivity
QVQLVESGGGLVQAGGSLRLSCAASGRTFRYNAMGWYRQAPGKERELVAGIRWSGDRTYYADSVKGRFTISRDNAKNTVYLQMNSLKPEDTAVYYCNKVYHPGYGVRATYDYWGQGTQVTVSS | high polyreactivity
QVQLVESGGGLVQAGGSLRLSCAASGRTFRYNAMGWYRQAPGKERELVAGITYYGGSTSYADSVKGRFTISRDNAKNTVYLQMNSLKPEDTEVYYCNVVYNYYGRFGSWGQGTQVTVSS | high polyreactivity
QVQLVESGGGLVQAGGSLRLSCAASGRTFRYNAMGWYRQAPGKERELVARITVIGDSTYYADSVKGRFTISRDNAKNTVYLQMNSLKPEDTAVYYCAAVSRRVSPYLSARDYWGQGTQVTVSS | high polyreactivity
QVQLVESGGGLVQAGGSLRLSCAASGRTFRYNAMGWYRQAPGKERELVASITYRGGSTYYADSVKGRFTISRDNAKNTVYLQMNSLKPEDTGVYYCATSVYSRPRKPRYYYWGQGTQVTVSS | high polyreactivity
QVQLVESGGGLVQAGGSLRLSCAASGRTFRYNDMGWYRQAPGKERELVAAITYTADRTYYADSVKGRFTISRDNAKNTVYLQMNSLKPEDTAVYYCNAAYGRRVTFRPYYWGQGTQVTVSS | high polyreactivity
